{"source": "paper PMC3928423", "about": "“RRP6 from Trypanosoma brucei: Crystal Structure of the Catalytic Domain, Association with EAP3 and Activity towards Structured and Non-Structured RNA Substrates” (PLoS ONE, 2014)", "molecules": {"B1": {"name": "GNRA20 (structured_RNA)", "RNA": "AUUUAUUUAGGGCGGGCGCAAGCCCGCCCUAUUUAUUAUUUAUUAUUUA"}, "B2": {"name": "dsDNA (dsDNA)", "DNA 1": "CCAAAAAAAAAAAAACCACTCACTCACTCA", "DNA 2": "TGAGTGAGTGAGTGGTTTTTTTTTTTTTGG"}, "B3": {"name": "TbEAP3ΔC1 (residues 1 to 183) (domain or fragment, Trypanosoma brucei, UniProt Q582G1 1-183, looked up)", "chain": "MQFDEDIVPLMEKMNAALDRVHQCLLPLLSSLDEDMLVSNYTVDEQARISLSAASALLFLTYAHDRLLNRAQGAGEDQQLMLKINRVTEYIGKLREITSLECKPRSSKGQTQQEGHDGDVSEVRNRKRERGEPPEKATKYAKVDDGRASKGGALENVKADGEDASVDPYGDAILFKEIERKGG", "notes": "TbEAP3, Trypanosoma brucei, gene Tb927.7.5460, residues 1-183 (C-terminal truncation); one copy in the heterodimer with TbRRP6ΔC; source: E. coli C3022 (pET21a), purified (His-Trap, Superdex 200, mono Q); also co-expressed with TbRRP6ΔC and co-purified"}, "B4": {"name": "ssRNA (ssRNA)", "RNA": "B2 DNA 1 with T20U, T24U, T28U"}, "B5": {"name": "ssDNA (ssDNA)", "DNA": "B2 DNA 1"}, "B6": {"name": "dsRNA (dsRNA)", "RNA 1": "B2 DNA 1 with T20U, T24U, T28U", "RNA 2": "UGAGUGAGUGAGUGGUUUUUUUUUUUUUGG"}}, "key": {"[1]": {"biological_target": "TbRRP6ΔC (residues 20 to 540) (Trypanosoma brucei) (UniProt Q95Z10)", "assay": "SEC-MALS; HPLC (Shimadzu), Shodex KW-804 or KW-803 column, proteins at 5 mg/mL in 50 mM Tris-HCl pH 7.5, 500 mM NaCl, 5% glycerol, 0.5 mL/min; miniDAWN TREOS"}, "[2]": {"biological_target": "TbEAP3ΔC2 (residues 1 to 144) (Trypanosoma brucei)", "assay": "SEC-MALS; HPLC (Shimadzu), Shodex KW-804 or KW-803 column, proteins at 5 mg/mL in 50 mM Tris-HCl pH 7.5, 500 mM NaCl, 5% glycerol, 0.5 mL/min; miniDAWN TREOS"}, "[3]": {"biological_target": "TbEAP3ΔC2 (residues 1 to 144) (Trypanosoma brucei)", "assay": "SEC-MALS; under reducing condition (10 mM DTT); data not shown"}, "TbEAP3ΔC2": {"biological_target": "T1, TbEAP3ΔC2 (Trypanosoma brucei, UniProt Q582G1 1-144)", "T1 sequence": "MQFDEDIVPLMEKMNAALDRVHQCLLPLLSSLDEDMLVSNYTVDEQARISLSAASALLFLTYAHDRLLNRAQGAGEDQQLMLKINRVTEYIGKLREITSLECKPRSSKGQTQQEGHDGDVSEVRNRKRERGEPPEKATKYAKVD", "assay": "EMSA; 5 mM MnCl2; protein 5-50 uM; 10 mM Tris-HCl pH 8.0, 10 mM DTT, 25 mM KCl, 5 mM MnCl2; 50 nM oligonucleotide; 5, 10 or 50 uM protein; 30 min on ice; native 6% gel, 0.25x TBE, 0.5% glycerol", "conditions": "protein: recombinant, tags: pET21a, chain copies: 2"}, "TbEAP3ΔC1": {"biological_target": "T2, TbEAP3ΔC1 (Trypanosoma brucei, UniProt Q582G1 1-183)", "T2 sequence": "B3 chain", "assay": "EMSA; 5 mM MnCl2; protein 5-50 uM; 10 mM Tris-HCl pH 8.0, 10 mM DTT, 25 mM KCl, 5 mM MnCl2; 50 nM oligonucleotide; 5, 10 or 50 uM protein; 30 min on ice; native 6% gel, 0.25x TBE, 0.5% glycerol", "conditions": "protein: recombinant, tags: pET21a, chain copies: 2"}, "[4]": {"biological_target": "the molecule itself", "assay": "SEC-MALS; HPLC (Shimadzu), Shodex KW-804 or KW-803 column, proteins at 5 mg/mL in 50 mM Tris-HCl pH 7.5, 500 mM NaCl, 5% glycerol, 0.5 mL/min; miniDAWN TREOS"}, "[5]": {"conditions": "label: 5'-FAM, hairpin with 20 nt 3' extension"}, "[6]": {"conditions": "label: 5'-FAM on strand 1, blunt"}}, "note": "Numbering of substitutions follows the chain as printed.", "data": [{"molecule": "TbEAP3ΔC2 (residues 1 to 144) (domain or fragment)", "values": [{"measurement": "stoichiometry N", "setting": "[1]", "value": 1}, {"measurement": "stoichiometry N", "setting": "[2]", "value": 2}, {"measurement": "stoichiometry N", "setting": "[3]", "value": 2}]}, {"molecule": "B1", "values": [{"measurement": "binding result", "setting": "TbEAP3ΔC2; [5]", "value": "no binding"}, {"measurement": "binding result", "setting": "TbEAP3ΔC1; [5]", "value": "no binding"}]}, {"molecule": "B2", "values": [{"measurement": "binding result", "setting": "TbEAP3ΔC2; [6]", "value": "no binding"}, {"measurement": "binding result", "setting": "TbEAP3ΔC1; [6]", "value": "no binding"}]}, {"molecule": "B3", "values": [{"measurement": "stoichiometry N", "setting": "[1]", "value": 1}, {"measurement": "stoichiometry N", "setting": "[4]", "value": 2}]}, {"molecule": "B4", "values": [{"measurement": "binding result", "setting": "TbEAP3ΔC2; label: 5'-FAM, single strand", "value": "no binding"}, {"measurement": "binding result", "setting": "TbEAP3ΔC1; label: 5'-FAM, single strand", "value": "no binding"}]}, {"molecule": "B5", "values": [{"measurement": "binding result", "setting": "TbEAP3ΔC2; label: 5'-FAM, single strand", "value": "no binding"}, {"measurement": "binding result", "setting": "TbEAP3ΔC1; label: 5'-FAM, single strand", "value": "no binding"}]}, {"molecule": "B6", "values": [{"measurement": "binding result", "setting": "TbEAP3ΔC2; [6]", "value": "no binding"}, {"measurement": "binding result", "setting": "TbEAP3ΔC1; [6]", "value": "no binding"}]}]}
